Experimental data published in publication PMC9482650, “Quantitative fragmentomics allow affinity mapping of interactomes” (Nature Communications, 2022).

T1: CARD11, Q9BXL7
T1 sequence (Q9BXL7 662-765, limits assumed, looked up): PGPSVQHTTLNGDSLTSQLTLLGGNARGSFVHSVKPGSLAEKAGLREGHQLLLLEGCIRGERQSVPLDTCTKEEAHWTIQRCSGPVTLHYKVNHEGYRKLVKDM

T2: GRIP1_2, Q9Y3R0
T2 sequence (Q9Y3R0 145-248, limits assumed, looked up): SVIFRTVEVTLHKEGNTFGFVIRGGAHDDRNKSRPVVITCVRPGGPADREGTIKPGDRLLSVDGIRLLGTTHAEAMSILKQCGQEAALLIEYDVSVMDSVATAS

T3: HTRA4, P83105
T3 sequence (P83105 378-476, limits assumed, looked up): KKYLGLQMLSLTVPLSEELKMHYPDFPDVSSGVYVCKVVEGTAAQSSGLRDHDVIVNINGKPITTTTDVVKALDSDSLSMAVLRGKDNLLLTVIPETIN

T4: NHERF3_3, Q5T2W1
T4 sequence (Q5T2W1 238-333, limits assumed, looked up): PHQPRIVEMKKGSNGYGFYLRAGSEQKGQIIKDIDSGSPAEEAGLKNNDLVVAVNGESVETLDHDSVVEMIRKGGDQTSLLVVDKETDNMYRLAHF

T5: NHERF3_4, Q5T2W1
T5 sequence (Q5T2W1 373-468, limits assumed, looked up): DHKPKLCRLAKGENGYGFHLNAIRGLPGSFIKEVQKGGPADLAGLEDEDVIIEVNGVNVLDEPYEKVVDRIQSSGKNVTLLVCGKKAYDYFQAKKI

T6: PDZD2_2, O15018
T6 sequence (O15018 329-429, limits assumed, looked up): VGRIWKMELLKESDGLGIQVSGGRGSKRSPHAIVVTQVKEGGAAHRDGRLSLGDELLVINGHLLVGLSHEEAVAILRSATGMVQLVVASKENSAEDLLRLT

T7: SIPA1L2, Q9P2F8
T7 sequence (Q9P2F8 945-1036, limits assumed, looked up): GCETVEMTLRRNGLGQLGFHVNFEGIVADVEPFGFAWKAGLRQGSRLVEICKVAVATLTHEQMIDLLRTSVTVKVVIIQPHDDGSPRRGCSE

T8: SNTA1, Q13424
T8 sequence (Q13424 82-180, limits assumed, looked up): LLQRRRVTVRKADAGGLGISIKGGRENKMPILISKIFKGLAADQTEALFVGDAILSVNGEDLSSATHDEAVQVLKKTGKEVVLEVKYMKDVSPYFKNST

T9: SNTG1, Q9NSN8
T9 sequence (Q9NSN8 52-150, limits assumed, looked up): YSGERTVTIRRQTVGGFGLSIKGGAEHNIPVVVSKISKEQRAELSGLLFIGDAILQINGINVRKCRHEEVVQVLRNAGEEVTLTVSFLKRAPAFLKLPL

T10: TJP3_3, O95049
T10 sequence (O95049 375-456, limits assumed, looked up): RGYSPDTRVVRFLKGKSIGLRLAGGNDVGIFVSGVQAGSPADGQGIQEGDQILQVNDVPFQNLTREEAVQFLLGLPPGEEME

B1: FAM167B, Q9BTA0 (peptide)
chain: NISARRFTLC

target: T1, CARD11, Q9BXL7; assay: holdup assay; set-up: key: below the threshold = too weak to quantify, mostly under pKd 3.1 to 4; details: plain residues with an end cap or a label only (N-terminal biotin on a linker: ado-ado)

Binder | pKd
B1 | below the threshold

target: CASK, O14936; assay: holdup assay; set-up: key: below the threshold = too weak to quantify, mostly under pKd 3.1 to 4; details: plain residues with an end cap or a label only (N-terminal biotin on a linker: ado-ado)
Sequence (O14936 487-570): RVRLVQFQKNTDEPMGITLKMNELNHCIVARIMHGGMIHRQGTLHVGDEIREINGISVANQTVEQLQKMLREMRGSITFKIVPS

Binder | pKd
B1 | below the threshold

target: DLG2_2, Q15700; assay: holdup assay; set-up: key: below the threshold = too weak to quantify, mostly under pKd 3.1 to 4; details: plain residues with an end cap or a label only (N-terminal biotin on a linker: ado-ado)
Sequence (Q15700 189-283): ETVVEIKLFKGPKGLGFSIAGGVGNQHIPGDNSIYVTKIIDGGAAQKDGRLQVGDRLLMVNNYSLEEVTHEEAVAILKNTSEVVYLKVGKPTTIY

Binder | pKd
B1 | 3.79

target: FRMPD2_1, Q68DX3; assay: holdup assay; set-up: key: below the threshold = too weak to quantify, mostly under pKd 3.1 to 4; details: plain residues with an end cap or a label only (N-terminal biotin on a linker: ado-ado)
Sequence (Q68DX3 770-861): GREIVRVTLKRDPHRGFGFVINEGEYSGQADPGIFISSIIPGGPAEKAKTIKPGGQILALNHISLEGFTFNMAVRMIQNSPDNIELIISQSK

Binder | pKd
B1 | 4.1

target: GOPC, Q9HD26; assay: holdup assay; set-up: key: below the threshold = too weak to quantify, mostly under pKd 3.1 to 4; details: plain residues with an end cap or a label only (N-terminal biotin on a linker: ado-ado)

Binder | pKd
B1 | below the threshold

target: T2, GRIP1_2, Q9Y3R0; assay: holdup assay; set-up: key: below the threshold = too weak to quantify, mostly under pKd 3.1 to 4; details: plain residues with an end cap or a label only (N-terminal biotin on a linker: ado-ado)

Binder | pKd
B1 | below the threshold

target: GRIP2_3, Q9C0E4; assay: holdup assay; set-up: key: below the threshold = too weak to quantify, mostly under pKd 3.1 to 4; details: plain residues with an end cap or a label only (N-terminal biotin on a linker: ado-ado)
Sequence (Q9C0E4 238-339): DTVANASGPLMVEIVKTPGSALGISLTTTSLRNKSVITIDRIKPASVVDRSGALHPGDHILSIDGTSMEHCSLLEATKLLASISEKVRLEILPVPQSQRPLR

Binder | pKd
B1 | below the threshold

target: GRIP2_4, Q9C0E4; assay: holdup assay; set-up: key: below the threshold = too weak to quantify, mostly under pKd 3.1 to 4; details: plain residues with an end cap or a label only (N-terminal biotin on a linker: ado-ado)
Sequence (Q9C0E4 446-548): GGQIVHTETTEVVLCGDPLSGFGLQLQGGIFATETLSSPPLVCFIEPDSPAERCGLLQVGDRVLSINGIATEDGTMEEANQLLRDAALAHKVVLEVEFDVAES

Binder | pKd
B1 | below the threshold

target: HTRA1, Q92743; assay: holdup assay; set-up: key: below the threshold = too weak to quantify, mostly under pKd 3.1 to 4; details: plain residues with an end cap or a label only (N-terminal biotin on a linker: ado-ado)
Sequence (Q92743 360-477): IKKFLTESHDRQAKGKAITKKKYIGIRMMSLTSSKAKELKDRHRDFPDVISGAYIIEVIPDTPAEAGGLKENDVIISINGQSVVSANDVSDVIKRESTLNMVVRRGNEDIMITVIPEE

Binder | pKd
B1 | 4.47

target: T3, HTRA4, P83105; assay: holdup assay; set-up: key: below the threshold = too weak to quantify, mostly under pKd 3.1 to 4; details: plain residues with an end cap or a label only (N-terminal biotin on a linker: ado-ado)

Binder | pKd
B1 | 4.55

target: Inadl_5, Q8NI35; assay: holdup assay; set-up: key: below the threshold = too weak to quantify, mostly under pKd 3.1 to 4; details: plain residues with an end cap or a label only (N-terminal biotin on a linker: ado-ado)
Sequence (Q8NI35 673-780): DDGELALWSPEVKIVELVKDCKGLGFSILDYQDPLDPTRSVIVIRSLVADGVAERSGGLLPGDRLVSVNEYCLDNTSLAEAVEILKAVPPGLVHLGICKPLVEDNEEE

Binder | pKd
B1 | below the threshold

target: Inadl_6, Q8NI35; assay: holdup assay; set-up: key: below the threshold = too weak to quantify, mostly under pKd 3.1 to 4; details: plain residues with an end cap or a label only (N-terminal biotin on a linker: ado-ado)
Sequence (Q8NI35 1058-1167): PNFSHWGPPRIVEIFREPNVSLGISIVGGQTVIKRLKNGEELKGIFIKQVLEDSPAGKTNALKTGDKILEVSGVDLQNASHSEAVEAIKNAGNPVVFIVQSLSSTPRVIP

Binder | pKd
B1 | below the threshold

target: LDB3, O75112; assay: holdup assay; set-up: key: below the threshold = too weak to quantify, mostly under pKd 3.1 to 4; details: plain residues with an end cap or a label only (N-terminal biotin on a linker: ado-ado)
Sequence (O75112 1-94): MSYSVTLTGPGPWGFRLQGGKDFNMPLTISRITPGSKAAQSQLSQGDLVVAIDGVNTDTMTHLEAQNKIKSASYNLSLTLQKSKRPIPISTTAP

Binder | pKd
B1 | below the threshold

target: LNX1_3, Q8TBB1; assay: holdup assay; set-up: key: below the threshold = too weak to quantify, mostly under pKd 3.1 to 4; details: plain residues with an end cap or a label only (N-terminal biotin on a linker: ado-ado)
Sequence (Q8TBB1 500-596): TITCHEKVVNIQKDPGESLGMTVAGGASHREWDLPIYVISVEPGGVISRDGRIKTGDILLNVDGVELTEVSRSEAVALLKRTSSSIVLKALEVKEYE

Binder | pKd
B1 | below the threshold

target: MAGI2_3, Q86UL8; assay: holdup assay; set-up: key: below the threshold = too weak to quantify, mostly under pKd 3.1 to 4; details: plain residues with an end cap or a label only (N-terminal biotin on a linker: ado-ado)
Sequence (Q86UL8 600-682): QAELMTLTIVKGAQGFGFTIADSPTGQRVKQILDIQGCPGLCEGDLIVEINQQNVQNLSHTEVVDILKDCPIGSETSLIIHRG

Binder | pKd
B1 | 3.81

target: MAGI2_4, Q86UL8; assay: holdup assay; set-up: key: below the threshold = too weak to quantify, mostly under pKd 3.1 to 4; details: plain residues with an end cap or a label only (N-terminal biotin on a linker: ado-ado)
Sequence (Q86UL8 772-865): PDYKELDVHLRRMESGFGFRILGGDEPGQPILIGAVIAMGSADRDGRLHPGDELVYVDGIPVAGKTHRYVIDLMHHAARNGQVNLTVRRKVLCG

Binder | pKd
B1 | 3.63

target: MAGI2_5, Q86UL8; assay: holdup assay; set-up: key: below the threshold = too weak to quantify, mostly under pKd 3.1 to 4; details: plain residues with an end cap or a label only (N-terminal biotin on a linker: ado-ado)
Sequence (Q86UL8 915-1017): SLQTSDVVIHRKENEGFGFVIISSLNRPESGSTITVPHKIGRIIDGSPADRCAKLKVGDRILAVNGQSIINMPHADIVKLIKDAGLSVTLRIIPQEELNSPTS

Binder | pKd
B1 | 4.26

target: MAST1, Q9Y2H9; assay: holdup assay; set-up: key: below the threshold = too weak to quantify, mostly under pKd 3.1 to 4; details: plain residues with an end cap or a label only (N-terminal biotin on a linker: ado-ado)
Sequence (Q9Y2H9 962-1065): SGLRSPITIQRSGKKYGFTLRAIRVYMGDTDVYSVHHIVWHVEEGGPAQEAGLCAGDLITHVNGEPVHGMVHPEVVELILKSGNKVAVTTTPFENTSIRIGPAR

Binder | pKd
B1 | below the threshold

target: T4, NHERF3_3, Q5T2W1; assay: holdup assay; set-up: key: below the threshold = too weak to quantify, mostly under pKd 3.1 to 4; details: plain residues with an end cap or a label only (N-terminal biotin on a linker: ado-ado)

Binder | pKd
B1 | below the threshold

target: T5, NHERF3_4, Q5T2W1; assay: holdup assay; set-up: key: below the threshold = too weak to quantify, mostly under pKd 3.1 to 4; details: plain residues with an end cap or a label only (N-terminal biotin on a linker: ado-ado)

Binder | pKd
B1 | below the threshold

target: NHERF4_2, Q86UT5; assay: holdup assay; set-up: key: below the threshold = too weak to quantify, mostly under pKd 3.1 to 4; details: plain residues with an end cap or a label only (N-terminal biotin on a linker: ado-ado)
Sequence (Q86UT5 220-308): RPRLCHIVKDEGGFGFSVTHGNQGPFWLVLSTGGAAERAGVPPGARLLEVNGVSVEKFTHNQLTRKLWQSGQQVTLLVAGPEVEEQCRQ

Binder | pKd
B1 | below the threshold

target: T6, PDZD2_2, O15018; assay: holdup assay; set-up: key: below the threshold = too weak to quantify, mostly under pKd 3.1 to 4; details: plain residues with an end cap or a label only (N-terminal biotin on a linker: ado-ado)

Binder | pKd
B1 | below the threshold

target: PICK1, Q9NRD5; assay: holdup assay; set-up: key: below the threshold = too weak to quantify, mostly under pKd 3.1 to 4; details: plain residues with an end cap or a label only (N-terminal biotin on a linker: ado-ado)
Sequence (Q9NRD5 17-115): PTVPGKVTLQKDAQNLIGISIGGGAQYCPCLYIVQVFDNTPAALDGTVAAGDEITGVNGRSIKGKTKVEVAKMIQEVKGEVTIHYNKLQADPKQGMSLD

Binder | pKd
B1 | below the threshold

target: PTPN3, P26045; assay: holdup assay; set-up: key: below the threshold = too weak to quantify, mostly under pKd 3.1 to 4; details: plain residues with an end cap or a label only (N-terminal biotin on a linker: ado-ado)
Sequence (P26045 505-587): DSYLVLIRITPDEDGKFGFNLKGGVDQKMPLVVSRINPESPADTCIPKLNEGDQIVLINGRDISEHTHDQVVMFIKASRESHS

Binder | pKd
B1 | 3.61

target: SCRIB_2, Q14160; assay: holdup assay; set-up: key: below the threshold = too weak to quantify, mostly under pKd 3.1 to 4; details: plain residues with an end cap or a label only (N-terminal biotin on a linker: ado-ado)
Sequence (Q14160 857-960): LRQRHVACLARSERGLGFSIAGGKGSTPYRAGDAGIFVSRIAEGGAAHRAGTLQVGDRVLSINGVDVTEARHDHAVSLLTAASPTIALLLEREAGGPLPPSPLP

Binder | pKd
B1 | below the threshold

target: T7, SIPA1L2, Q9P2F8; assay: holdup assay; set-up: key: below the threshold = too weak to quantify, mostly under pKd 3.1 to 4; details: plain residues with an end cap or a label only (N-terminal biotin on a linker: ado-ado)

Binder | pKd
B1 | 3.73

target: T8, SNTA1, Q13424; assay: holdup assay; set-up: key: below the threshold = too weak to quantify, mostly under pKd 3.1 to 4; details: plain residues with an end cap or a label only (N-terminal biotin on a linker: ado-ado)

Binder | pKd
B1 | below the threshold

target: T9, SNTG1, Q9NSN8; assay: holdup assay; set-up: key: below the threshold = too weak to quantify, mostly under pKd 3.1 to 4; details: plain residues with an end cap or a label only (N-terminal biotin on a linker: ado-ado)

Binder | pKd
B1 | 3.48

target: T10, TJP3_3, O95049; assay: holdup assay; set-up: key: below the threshold = too weak to quantify, mostly under pKd 3.1 to 4; details: plain residues with an end cap or a label only (N-terminal biotin on a linker: ado-ado)

Binder | pKd
B1 | below the threshold
